In a protein production outcome set (Wang et al. 2014) one finds protein production data, which are given here for 6 sequences.

The nature of this data set: label from the status in PepcDB records.
In the case of “MTADGRGRIDAAFRGRLGRFVLDASLSVPATGVTAIFGPSGCGKTTIARCIAGLQRLSDGFCAIDGEIWQDGMAFRPAHRRPVGYVFQEPSLFPHLSVRGNLLYGAPKAAATSIGFDEVVELLGLTALLGRSPHRLSGGERQRVAIGRALLSQPRLLLMDEPLAALDRTTKNEILPFLERLHERLSLPVLYISHDMAEIERFADYLVLMERGRVVGAGPLHILQSDPALPLAYSRDAAVSIDGLVEAYDERYGLLTLAVNGGLLHVPSHRIAVGARQRLRIAASDVSIVRARPSESSILNILPARIVTQSPPGAGEVTIVLGLDSDGSGAPILSRISSRSRDLLGLSDGMAVFAQVKGVSLVRASGCAIGNMGPTAPGQLDHCSTQDTGVRSEAGTTAMPIDFAEIDPNRVAAILYRPQDDLDTLLADFAQDLVRAGERIGGIVQRNIKDGSGCQVGMQAIDLMTGREISICQPLGSGAMACKLDAAGLADASVAVASAIAQDVDLIVINKFSKQEAAGRGLRDELAGAIAAGIPVLTAVPEKCFEAWISFTGGIGTTLLCERQVIEAWWRDTSSRMKRMREDHDAVVAQCIEISGALPLVQRVVARQLVVTHDLPLDPERAEAEVVVRGVVERTNVEVLDGAADEADEAPDAGFPVGPERIERLPDIGPVPRRHEALQVEREVLSPDACLQRSAGERVDVFKEGKTKVGTVLVDRGDAELVEGPIVLELHEGAPVLVEMNVGVDLQTLYEIAVRGRVAGAERRCAIGLEAFAQRRPQRDVAFRIGGPKRDVFEPVKRFGTQPGIGKDRPVLCPAVRLDRRPLGDRSVLGPREPDAGAKGRKRQNDPEVAHIAPCQHRRTSPHLASARDALFGPREWISATYPPGNMTNAADRLLDV”, the protein production entry is reported as “failed”.
Under “MTADRPLLGIFLMLGFCVLAPMGDALAKLLGGTMPTMQLLLVRFAIQAVILIPLVQATGRPWQLRGRLLRLTALRTLLHIVGIWAMFTALRYLPLADAIAIAFVMPFIMLLLGKYVLGEEVGPRRLGACIVGFAGTLLVIQPSFAEVGLPALLPLLVAVVFALFMLVTRQLAKDTDPIALQAVSGVMACVALTPVLLIGHAAGVEALTLVTASGTTLWLLLAIGVLGTAAHLLMTWSLRYAPSATLAPMQYLEIPVATAIGWLIFHDLPNGLAALGILITMAAGLYVILREQATARSAATETSG” stands “failed”; under “MTADSQTCFCVCTMAVTVTNNQAIDLSRAKAQGRAMAKPLTSHRPILAVSLKLGALVLFTSMSALIKVLSADFPAGEMVFFRSLFAIPVIILWLLARGELRQGLIVKKPMGHFWRGVLGTGAMGLTFTGLGLLPLPEVTAIGYATPIFTLILAALMLGETIRLVRIGAVALGLLGVLIMLWPRLGTGASLDQAATIGALCVLAATVARAFVQIHIRQLVQVDHAAAIVFYFSLTATLLSGLTAFFGWVTPTPEQAAILILTGLVGGVAQILVTSSYRFGQASMLAPYDYASMLFAIIIGYIWFDEWPTLVMLAGAMLVIAGNVVVIWRERQLGLERGKARSVTDPKG”, “failed”.
Regarding “MTAEPAATSAPLSGPVAVIGCGWVGWPLARALLVAGAEVRGSATTPEKVAALRAEGVAATRLRLTPDTSPESDELTELLRGAHRLVLTVPPGRGPERERYAEYLSPVAQAAALHGVRQLIFTSSTGVYPNDPHVMTESDALATPDSPSPLLRAEAALAAAGVPLTVLRFAGLYGPGRPPGRFLAGRTEVGEGSAPVNLVHLDDCVGAVQHMLGGDFGGQTFNVCAAAHPLRRDFYPAAARALGLEAPSFAPHEGGGKIIGSEAFRAATGYHFRHDDPLSDLHTLGNGQGA”, the protein production entry was “failed”.
On to “MTAEQLIEKYKNPAIIGLGVIVALIAAFVFYKYNQSENNTVAQEEMYKAVFYFEQDSLELALKGDEAKGIRGLQEVADEYSGTKAGKLAAFYTGIIYLKQAKFQESIDYLEKFSSNEGILQARSWAAMGDAYSELNDLENAIKYYKKAADHKGNEQITPTYLMKLGLAYELNNNWKDASDAYDKIITDYPKSQDVADAKKYKAKAQAALSASE”, for which the protein production entry is “failed”.
The entry for “MTAETSQTLDRGLRVLKLLADTDHGLTVTELSHKLGVNRTVVYRLLATLEQHALVRRDLGGRARVGLGVLGLGRQVHPLVREAAMPALRALAEDIGATAHLTLVDGAEALAVAVVEPTWTDYHVAYRAGFRHPLERGAAGKAILAARQPSQPTGGEAVDDPGYTLTHGELEAGACGAAAPLLGVTGVEGSVGVVMLADVVPERVGERVKHAAREVAEALR” is “failed”.
